The values below are quoted from earlier work in patent publication US20100311759A1, “ANTIPARASITIC AGENT FOR FISH AND METHOD OF CONTROLLING PROLIFERATION OF FISH PARASITES” (NIPPON SUISAN KAISHA, LTD., priority 2007, published 2010).

In the series the test system is White spot disease. The settings on record: 40 mg per 1 kg of fish body weight orally per day, 28-day experimental period.

B1: lactoferrin: marketed as an additive for fisheries; thought to increase non-specific biophylactic ability of host fish (protein, UniProt P24627 20-708, looked up)
Lactotransferrin: APRKNVRWCTISQPEWFKCRRWQWRMKKLGAPSITCVRRAFALECIRAIAEKKADAVTLDGGMVFEAGRDPYKLRPVAAEIYGTKESPQTHYYAVAVVKKGSNFQLDQLQGRKSCHTGLGRSAGWIIPMGILRPYLSWTESLEPLQGAVAKFFSASCVPCIDRQAYPNLCQLCKGEGENQCACSSREPYFGYSGAFKCLQDGAGDVAFVKETTVFENLPEKADRDQYELLCLNNSRAPVDAFKECHLAQVPSHAVVARSVDGKEDLIWKLLSKAQEKFGKNKSRSFQLFGSPPGQRDLLFKDSALGFLRIPSKVDSALYLGSRYLTTLKNLRETAEEVKARYTRVVWCAVGPEEQKKCQQWSQQSGQNVTCATASTTDDCIVLVLKGEADALNLDGGYIYTAGKCGLVPVLAENRKSSKHSSLDCVLRPTEGYLAVAVVKKANEGLTWNSLKDKKSCHTAVDRTAGWNIPMGLIVNQTGSCAFDEFFSQSCAPGADPKSRLCALCAGDDQGLDKCVPNSKEKYYGYTGAFRCLAEDVGDVAFVKNDTVWENTNGESTADWAKNLNREDFRLLCLDGTRKPVTEAQSCHLAVAPNHAVVSRSDRAAHVKQVLLHQQALFGKNGKNCPDKFCLFKSETKNLLFNDNTECLAKLGGRPTYEEYLGTEYVTAIANLKKCSTSPLLEACAFLTR
B1: the infection result is “no infection was observed”.
